Here are results for two substances from publication PMC10586804.

Test [1] deals with vasopressin type 2 receptor (UniProt P30518).
Test [2] has as its target chimeric V2R harboring the carboxy-terminal tail of the β2-adrenergic receptor.
In test [3] the target is vasopressin type 2 receptor (UniProt P30518). The source holds these as a separate data set.

Take mini G protein mGs: in test [1], the AVP-induced maximal efficacy of Rluc-mGs recruitment to early endosomes (EbBRET with rGFP-Rab5), AVP dose-response, 45 min, parental HEK293 cells was 0.18 ΔEbBRET; the AVP-induced maximal efficacy of Rluc-mGs recruitment to early endosomes (EbBRET with rGFP-Rab5), AVP dose-response, 45 min, Δβarr1/2 HEK293 cells is 0.074 ΔEbBRET; the AVP-induced maximal efficacy of Rluc-mGs recruitment to the plasma membrane (EbBRET with rGFP-CAAX), AVP dose-response, 10 min, parental HEK293 cells is 0.324 ΔEbBRET; the AVP-induced maximal efficacy of Rluc-mGs recruitment to the plasma membrane (EbBRET with rGFP-CAAX), AVP dose-response, 10 min, Δβarr1/2 HEK293 cells was 0.376 ΔEbBRET. For the same substance, in test [1], the Potency of AVP (LogEC50) for Rluc-mGs recruitment to early endosomes (EbBRET with rGFP-Rab5), 45 min, parental HEK293 cells is -8.37 LogEC50; the Potency of AVP (LogEC50) for Rluc-mGs recruitment to early endosomes (EbBRET with rGFP-Rab5), 45 min, Δβarr1/2 HEK293 cells was -8.34 LogEC50; the Potency of AVP (LogEC50) for Rluc-mGs recruitment to the plasma membrane (EbBRET with rGFP-CAAX), 10 min, parental HEK293 cells was -7.9 LogEC50; the Potency of AVP (LogEC50) for Rluc-mGs recruitment to the plasma membrane (EbBRET with rGFP-CAAX), 10 min, Δβarr1/2 HEK293 cells is -7.99 LogEC50. Also, in test [2], the AVP-mediated maximal efficacy of Rluc-mGs recruitment to early endosomes (EbBRET with rGFP-Rab5), AVP dose-response, 45 min, cells expressing V2β2AR is 0.15 ΔEbBRET; the AVP-mediated maximal efficacy of Rluc-mGs recruitment to the plasma membrane (EbBRET with rGFP-CAAX), AVP dose-response, 10 min, cells expressing V2β2AR is 0.392 ΔEbBRET; the Potency of AVP (logEC50) for Rluc-mGs recruitment to early endosomes (EbBRET with rGFP-Rab5), 45 min, cells expressing V2β2AR was -8.34 logEC50; the Potency of AVP (logEC50) for Rluc-mGs recruitment to the plasma membrane (EbBRET with rGFP-CAAX), 10 min, cells expressing V2β2AR is -8.07 logEC50. In test [2], the Transduction coefficient log(τ/Ka) of Rluc-mGs recruitment to early endosomes (EbBRET with rGFP-Rab5), cells expressing V2β2AR was 8.31 log(τ/Ka) and the Transduction coefficient log(τ/Ka) of Rluc-mGs recruitment to the plasma membrane (EbBRET with rGFP-CAAX), cells expressing V2β2AR was 8.04 log(τ/Ka). Besides, in test [3], the AVP-mediated maximal efficacy of Rluc-mGs recruitment to early endosomes (EbBRET with rGFP-Rab5), AVP dose-response, 45 min, cells expressing V2R was 0.167 ΔEbBRET; the AVP-mediated maximal efficacy of Rluc-mGs recruitment to the plasma membrane (EbBRET with rGFP-CAAX), AVP dose-response, 10 min, cells expressing V2R is 0.3 ΔEbBRET; the Potency of AVP (logEC50) for Rluc-mGs recruitment to early endosomes (EbBRET with rGFP-Rab5), 45 min, cells expressing V2R was -8.65 logEC50; the Potency of AVP (logEC50) for Rluc-mGs recruitment to the plasma membrane (EbBRET with rGFP-CAAX), 10 min, cells expressing V2R is -8.07 logEC50. Further, in test [3], the Transduction coefficient log(τ/Ka) of Rluc-mGs recruitment to early endosomes (EbBRET with rGFP-Rab5), cells expressing V2R was 8.63 log(τ/Ka) and the Transduction coefficient log(τ/Ka) of Rluc-mGs recruitment to the plasma membrane (EbBRET with rGFP-CAAX), cells expressing V2R is 7.98 log(τ/Ka).
For the substance mini G protein mGsq, in test [1], the AVP-induced maximal efficacy of Rluc-mGsq recruitment to early endosomes (EbBRET with rGFP-Rab5), AVP dose-response, 45 min, parental HEK293 cells is 0.05 ΔEbBRET; the AVP-induced maximal efficacy of Rluc-mGsq recruitment to early endosomes (EbBRET with rGFP-Rab5), AVP dose-response, 45 min, Δβarr1/2 HEK293 cells is 0.024 ΔEbBRET; the AVP-induced maximal efficacy of Rluc-mGsq recruitment to the plasma membrane (EbBRET with rGFP-CAAX), AVP dose-response, 10 min, parental HEK293 cells was 0.168 ΔEbBRET; the AVP-induced maximal efficacy of Rluc-mGsq recruitment to the plasma membrane (EbBRET with rGFP-CAAX), AVP dose-response, 10 min, Δβarr1/2 HEK293 cells is 0.18 ΔEbBRET. Moreover, in test [1], the Potency of AVP (LogEC50) for Rluc-mGsq recruitment to early endosomes (EbBRET with rGFP-Rab5), 45 min, parental HEK293 cells was -8.38 LogEC50; the Potency of AVP (LogEC50) for Rluc-mGsq recruitment to early endosomes (EbBRET with rGFP-Rab5), 45 min, Δβarr1/2 HEK293 cells is -8.32 LogEC50; the Potency of AVP (LogEC50) for Rluc-mGsq recruitment to the plasma membrane (EbBRET with rGFP-CAAX), 10 min, parental HEK293 cells was -7.81 LogEC50; the Potency of AVP (LogEC50) for Rluc-mGsq recruitment to the plasma membrane (EbBRET with rGFP-CAAX), 10 min, Δβarr1/2 HEK293 cells is -7.95 LogEC50. Besides, in test [2], the AVP-mediated maximal efficacy of Rluc-mGsq recruitment to early endosomes (EbBRET with rGFP-Rab5), AVP dose-response, 45 min, cells expressing V2β2AR was 0.061 ΔEbBRET; the AVP-mediated maximal efficacy of Rluc-mGsq recruitment to the plasma membrane (EbBRET with rGFP-CAAX), AVP dose-response, 10 min, cells expressing V2β2AR is 0.183 ΔEbBRET; the Potency of AVP (logEC50) for Rluc-mGsq recruitment to early endosomes (EbBRET with rGFP-Rab5), 45 min, cells expressing V2β2AR is -7.82 logEC50; the Potency of AVP (logEC50) for Rluc-mGsq recruitment to the plasma membrane (EbBRET with rGFP-CAAX), 10 min, cells expressing V2β2AR was -7.97 logEC50. Moreover, in test [2], the Transduction coefficient log(τ/Ka) of Rluc-mGsq recruitment to early endosomes (EbBRET with rGFP-Rab5), cells expressing V2β2AR was 7.91 log(τ/Ka) and the Transduction coefficient log(τ/Ka) of Rluc-mGsq recruitment to the plasma membrane (EbBRET with rGFP-CAAX), cells expressing V2β2AR was 7.99 log(τ/Ka). In addition, in test [3], the AVP-mediated maximal efficacy of Rluc-mGsq recruitment to early endosomes (EbBRET with rGFP-Rab5), AVP dose-response, 45 min, cells expressing V2R is 0.05 ΔEbBRET; the AVP-mediated maximal efficacy of Rluc-mGsq recruitment to the plasma membrane (EbBRET with rGFP-CAAX), AVP dose-response, 10 min, cells expressing V2R is 0.161 ΔEbBRET; the Potency of AVP (logEC50) for Rluc-mGsq recruitment to early endosomes (EbBRET with rGFP-Rab5), 45 min, cells expressing V2R was -8.44 logEC50; the Potency of AVP (logEC50) for Rluc-mGsq recruitment to the plasma membrane (EbBRET with rGFP-CAAX), 10 min, cells expressing V2R was -7.88 logEC50. Besides, in test [3], the Transduction coefficient log(τ/Ka) of Rluc-mGsq recruitment to early endosomes (EbBRET with rGFP-Rab5), cells expressing V2R was 8.31 log(τ/Ka) and the Transduction coefficient log(τ/Ka) of Rluc-mGsq recruitment to the plasma membrane (EbBRET with rGFP-CAAX), cells expressing V2R was 7.9 log(τ/Ka).
